Measured values reported in the supplement of paper PMC12764529.
± gives the half width of the 95% confidence interval.

Key:
[1] = folding stability dG unfold from chymotrypsin proteolysis; higher = more stable
Outline: (§1)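 Bayesian fitting of sequencing counts gave K50 for each design. Unfolding free energy followed by setting this against a sequence-predicted unfolded-state K50 and a shared folded-state K50, either per protease or with trypsin and chymotrypsin combined. The designs, under 80 residues and lacking cysteine, were digested in a PA-tagged cDNA display format at 11 threefold-diluted protease concentrations and without protease, and only those with AlphaFold2 dimer inter-PAE above 15 were kept.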

[2] = folding stability dG unfold (combined trypsin and chymotrypsin); higher = more stable
Outline: as §1

[3] = folding stability dG unfold from trypsin proteolysis; higher = more stable
Outline: as §1

| Sequence | folding stability dG unfold [1] [kcal/mol] | folding stability dG unfold [2] [kcal/mol] | folding stability dG unfold [3] [kcal/mol] |
| --- | --- | --- | --- |
| SAGGSAGGSAGKKIKVRIKVKDPETNEYYEIEIEAETEEEALEALKKLFPNVKKVEIVPASAGGSAGGSAGG [r11_25_TrROS_Hall] | 2.69 ± 0.11 | 3.18 ± 0.15 | 3.26 ± 0.11 |
| SAGGSAGGSAGKKKIIILINENMKEEEIVDYIKKKYGKNVKIEEIIPISPNIKIIKVIIDSAGGSAGGSAGG [r11_580_TrMRF] | 4.01 ± 0.17 | 4.02 ± 0.14 | 3.96 ± 0.12 |
| SAGGSAGGSAGKKKIVFLVEDPEEALKTLTFPKDANIEIEKIEVKPLPNGLYEVVIYLKNSAGGSAGGSAGG [r11_150_TrMRF] | 4.59 ± 0.1 | 4.29 ± 0.24 | 2.76 ± 0.081 |
| SAGGSAGGSAGKKKKKKPKKVKSVKIKITIKNKNGEKKEITVTFNKDGKLTLEEIKKLLKSAGGSAGGSAGG [r11_759_TrROS_Hall] | 2.51 ± 0.12 | 2.28 ± 0.21 | 2.22 ± 0.056 |
| SAGGSAGGSAGKKKLVIEQRPDGLVRIRLPNGKVLEVSREELEELAKELGIDKVEIYPVPSAGGSAGGSAGG [r11_312_TrROS_Hall] | 2.067 ± 0.019 | 1.83 ± 0.05 | 1.58 ± 0.025 |
| SAGGSAGGSAGKKKLVVVVDPEEPGRVRIYRDGKVIEMSLEELKKLGIDEVVSVEELLAKSAGGSAGGSAGG [r17_88_TrROS_Hall] | 2.34 ± 0.026 | 1.96 ± 0.09 | 1.03 ± 0.04 |
| SAGGSAGGSAGKKPEKYILIKVKKEDVEKLLEAIKKLLPPGAEIVKIEKTPEYVYIVVKLSAGGSAGGSAGG [r11_698_TrROS_Hall] | 4.38 ± 0.07 | 4.21 ± 0.086 | 3.39 ± 0.13 |
| SAGGSAGGSAGKKTLPTYDPKKGKISLIVIEDKEGKEIVFEAFGDGKEFIEAAKEFEKKISAGGSAGGSAGG [r11_119_TrMRF] | 0.182 ± 0.064 | -0.0388 ± 0.099 | -0.463 ± 0.12 |
| SAGGSAGGSAGKKVTLKVLVKNENGKLYMFEAEYEFDENGKLVKVKVKVYEVEVKDLKLPSAGGSAGGSAGG [r11_1019_TrROS_Hall] | 3.02 ± 0.039 | 2.86 ± 0.16 | 2.66 ± 0.13 |
| SAGGSAGGSAGKKYLIKIEVEKNGKKYTITMSLEELKKLISSPNVKIVKIEIVEVSEEDLSAGGSAGGSAGG [r17_204_TrROS_Hall] | 5 ± 0.07 | 4.98 ± 0.11 | 4.33 ± 0.15 |
| SAGGSAGGSAGKLEVVELEDGYLVVYDPETGLIVLYTPEEVVAELLDAFDPDKPVVVVEFSAGGSAGGSAGG [r11_374_TrMRF] | 0.689 ± 0.064 | 1.17 ± 0.11 | 1.46 ± 0.091 |
| SAGGSAGGSAGKLKIKSVITFESEDDLIVKLIEVDDKVFAIVLDPKTGKPVKIIPDNEIFSAGGSAGGSAGG [r11_851_TrMRF] | 1.2 ± 0.13 | 0.873 ± 0.18 | 0.0652 ± 0.13 |
| SAGGSAGGSAGKLVVVRAIDPENPFVVATTSDNRTYVFDSLEELLEQVPEGVPVLFLPTVSAGGSAGGSAGG [r17_295_TrMRF] | 1.22 ± 0.071 | 0.933 ± 0.081 | 0.369 ± 0.028 |
| SAGGSAGGSAGKMYKAKVKIGNKEYEAYIEENVPEDGTITVKFDDKTIEIKAENIEVYDESAGGSAGGSAGG [r11_247_TrMRF] | 1.32 ± 0.11 | 1.15 ± 0.067 | 0.905 ± 0.031 |
| SAGGSAGGSAGKNMVEIEMMFVLPDGWFIKTSLRINPDKPGRIHEVEIEIRKIPPNDEQISAGGSAGGSAGG [r17_299_TrROS] | 4.31 ± 0.17 | 4.06 ± 0.19 | 3.51 ± 0.24 |
| SAGGSAGGSAGKNPDGQPAPTIEIEPRTRELPDNGYKITIMRIRFPDSGVEFPMIMISPPSAGGSAGGSAGG [r17_31_TrROS] | 1.51 ± 0.091 | 1.29 ± 0.1 | 0.833 ± 0.072 |
| SAGGSAGGSAGKPEVKVEAEVEPYPETDLVVVNVRVYVDGVPVEIPFVVPPSVAEAFLKASAGGSAGGSAGG [r11_700_TrMRF] | 1.26 ± 0.024 | 1.16 ± 0.048 | 1.08 ± 0.03 |
| SAGGSAGGSAGKPIKLEEVLEKLNPEKIESVFVFPPIPYVVVLLKDSNGNKKIIVVKEDKSAGGSAGGSAGG [r17_374_TrMRF] | 0.922 ± 0.21 | 0.837 ± 0.13 | 0.695 ± 0.019 |
| SAGGSAGGSAGKPIPYRITLETETTRAVFTIPADVPLEKVVEIAREIRELYPAPFSIEPSSAGGSAGGSAGG [r11_515_TrMRF] | -0.00667 ± 0.43 | 0.197 ± 0.21 | 0.14 ± 0.21 |
| SAGGSAGGSAGKPKEIFVFDKEIDADEAVALLPDEVKEVVVFDIEEAREKGGILIKAVVDSAGGSAGGSAGG [r11_1002_TrMRF] | 0.898 ± 0.1 | 0.54 ± 0.14 | -1.18 ± 0.61 |
| SAGGSAGGSAGKPKIKIEEIIEIEVITKKKIPETGKEKETPEKLYIIKVKVENIPPNLKVSAGGSAGGSAGG [r17_530_TrMRF] | 2.11 ± 0.06 | 1.38 ± 0.25 | 0.466 ± 0.11 |

| Sequence | folding stability dG unfold [1] [kcal/mol] | folding stability dG unfold [2] [kcal/mol] | folding stability dG unfold [3] [kcal/mol] |
| --- | --- | --- | --- |
| SAGGSAGGSAGKPKVRLKLRLTVRVTTLNEDGSLEETEVELELEVELPEVRLPSLEELLKSAGGSAGGSAGG [r11_285_TrROS_Hall] | 2.92 ± 0.24 | 3.07 ± 0.41 | 3.22 ± 0.23 |
| SAGGSAGGSAGKPKVYVKPIVKKGDYVLYLSYYPEEKKIELWVDKFGDKPKRFVKEYPLESAGGSAGGSAGG [r11_738_TrMRF] | 1.25 ± 0.07 | 1.13 ± 0.068 | 0.866 ± 0.043 |
| SAGGSAGGSAGKPSVTILVLTDSPEDALALAKPLLEAGYEVKLELFRLPDDRYLALITVPSAGGSAGGSAGG [r11_677_TrMRF] | 3.36 ± 0.039 | 2.92 ± 0.094 | 2.13 ± 0.041 |
| SAGGSAGGSAGKPVLTLTLRLEDGTLVRIEFDLETEELTVRVLDLETGEEKEFTFKLPAPSAGGSAGGSAGG [r11_931_TrROS_Hall] | 4.07 ± 0.074 | 3.9 ± 0.14 | 3.51 ± 0.22 |
| SAGGSAGGSAGKRYTFFIPVPPDEMTPEDLVDWIEKIFPDFKGKEIKVEVMPDGYVRIKIEYSAGGSAGGSA [r18_65_TrROS] | 3.89 ± 0.044 | 3.56 ± 0.097 | 3.08 ± 0.069 |
| SAGGSAGGSAGKTYEIVEYNPETKKFLIRFEDGSTKEVEVKPGDKIEVPPGAKVEIVPLDSAGGSAGGSAGG [r17_295_TrROS_Hall] | 1.76 ± 0.1 | 1.88 ± 0.14 | 1.94 ± 0.069 |
| SAGGSAGGSAGKVEITVEKNPETGLYTVRIKTEDGKEIEITVPKNMTLEELKKLAEELLKSAGGSAGGSAGG [r17_161_TrROS_Hall] | 4.42 ± 0.11 | 4.42 ± 0.1 | 4.43 ± 0.22 |
| SAGGSAGGSAGKVKLVEENGKLKLVVVDEKTKKVTVIEVPLENLDEILKLLPPGAKVYLLSAGGSAGGSAGG [r11_1006_TrROS_Hall] | 2.52 ± 0.049 | 2.12 ± 0.17 | 1.05 ± 0.053 |
| SAGGSAGGSAGKYAIVEVNGKPVLVEFEPLPDDKVKVKIVFPDGSKVEIELKANEPIYVGSAGGSAGGSAGG [r11_525_TrMRF] | 1.72 ± 0.076 | 1.83 ± 0.13 | 1.75 ± 0.095 |
| SAGGSAGGSAGLDPDDPNYKIIPMTMEIKVEEYRMDPDGKMERQEQEHPIPILIIVPPGDSAGGSAGGSAGG [r17_523_TrROS] | -0.37 ± 0.28 | 0.365 ± 0.22 | 0.933 ± 0.074 |
| SAGGSAGGSAGLEVPEGYEVKILDVNPETLPNGERVVSMTVLIIDPDGNPRKVEFRFYAPSAGGSAGGSAGG [r11_570_TrMRF] | 2.1 ± 0.063 | 2.27 ± 0.084 | 2.47 ± 0.17 |
| SAGGSAGGSAGLFPGPENIPKVSITPFEVENPLDDYTVTLYRVDFPDLGLSLPAALVSKRSAGGSAGGSAGG [r17_31_TrMRF] | 1.6 ± 0.07 | 1.36 ± 0.16 | 0.698 ± 0.15 |
| SAGGSAGGSAGLKPGDEVLVISIEVETEIKLEEKDGKLTLETETKVKITITRVKLPEGAESAGGSAGGSAGG [r17_186_TrROS_Hall] | 3.01 ± 0.21 | 3.82 ± 0.25 | 3.79 ± 0.22 |
| SAGGSAGGSAGLKVIEADTLEEVLEAIKEAPKDEPLLLILRNPSTGVDSVLLFDGDKIVLGGSAGGSAGGSA [r18_407_TrMRF] | 0.595 ± 0.09 | 0.909 ± 0.06 | 1.09 ± 0.029 |
| SAGGSAGGSAGLPVLRPLIIPGPSVLRILEVRLREDGSVEVISEETIPLPPPIPSPSELTSAGGSAGGSAGG [r11_843_TrMRF] | 0.994 ± 0.16 | 0.905 ± 0.13 | 0.763 ± 0.038 |
| SAGGSAGGSAGMEEIEIKFPENGKPLEIYRVPDGSAIIRNPGDGHYFQMDGNKIEIVGPLSAGGSAGGSAGG [r17_476_TrROS] | 0.353 ± 0.13 | 0.703 ± 0.18 | 0.861 ± 0.048 |
| SAGGSAGGSAGMELTLDEIRALLPAEEIEEVEVVEVDGKLVIRVKRKDGKEVRELVIEKDSAGGSAGGSAGG [r17_374_TrROS_Hall] | 1.67 ± 0.054 | 1.73 ± 0.13 | 1.63 ± 0.065 |
| SAGGSAGGSAGMEPVYLLVKRTNPATGGREEALLAVPAEDLDAVREALEALPGVEEIEEISAGGSAGGSAGG [r17_438_TrMRF] | 1.18 ± 0.079 | 0.886 ± 0.079 | 0.283 ± 0.05 |
| SAGGSAGGSAGMETPVLYNVTVTPPDGSTTTYTVPEGLSEEEIRALLNVPASDTITFSPVSAGGSAGGSAGG [r11_340_JUSTAS] | 2.02 ± 0.029 | 1.99 ± 0.033 | 1.87 ± 0.042 |
| SAGGSAGGSAGMEVFKSADGKRLLIRAKNGKVAEFDVETGELKFSKENLSPEDIEIVEVPSAGGSAGGSAGG [r17_174_TrROS_Hall] | 1.05 ± 0.14 | 0.72 ± 0.22 | 0.385 ± 0.2 |
